# B1: ranibizumab (antibody, chains of the INN, looked up, V domains shown)
# VH: EVQLVESGGGLVQPGGSLRLSCAASGYDFTHYGMNWVRQAPGKGLEWVGWINTYTGEPTYAADFKRRFTFSLDTSKSTAYLQMNSLRAEDTAVYYCAKYPYYYGTSHWYFDVWGQGTLVTVSS
# VL: DIQLTQSPSSLSASVGDRVTITCSASQDISNYLNWYQQKPGKAPKVLIYFTSSLHSGVPSRFSGSGSGTDFTLTISSLQPEDFATYYCQQYSTVPWTFGQGTKVEIK
# modifications: Fab
# Legend:
# [1] = 1.25 to 2.5 mg aqueous bevacizumab into the vitreous cavity; animal and human studies; cited from earlier work
# [2] = system: ARPE-19 cells; test: ARPE-19 cell viability (MTT) assay with polysorbate 80; type: cell-based
# Protocol: An experiment was carried out to examine the toxicity of a polysorbate retinal penetrant enhancer to retinal pigment epithelial (“RPE”) cells. Thus, ARPE-19 cells (see Dunn K. et al., ARPE-19, a human retinal pigment epithelial cell line with differentiated properties, Exp Eye Res. 1996 Feb;62(2):155-69) were incubated in vitro in concentrations of polysorbate 80 ranging from 0% to 0.10% w/w and a cell viability assay was performed.
# The protocol for this in vitro experiment was as follows: ARPE-19 cells (passage 11 to 23) were seeded the day prior to experimentation in 24 well-plates at 125.000 cells/well in DMEM:F12 medium supplemented with 10% FBS. Time course and dose response were simultaneously performed on ARPE-19 cells. Parameters of incubating solutions such as pH, osmolarity were measured for every concentration. Times of incubation were 24 h, 48 h, 72 h. One negative (non-treated) and one positive control (5 mM H2O2) were included. Non-treated condition was cell culture medium supplemented with serum. 5 mM H2O2 was prepared from 3% H2O2 stock solution (875 mM). Concentrations applied to cells were determined considering several parameters, such as • (a) commonly used concentration in formulation. • (b) limiting concentration to compound solubility. • (c) limiting concentration to applicable viscosity, osmolarity and pH values. In a first approach, the concentrations covered a wide range (Exp.1). After preliminary results, a second set of experiments (Exp.2 to 4) determined more accurately compound concentrations leading to inhibition of 50% of cell viability, based on cell viability assay and morphological aspect. […] Results from MTT assay were expressed as a percentage of cell viability calculated as follows: % cell viability=ODtest/ODcontrol×100. […] Gap concentration bringing to 50% cell viability was therefore determined. Morphological appearance was analyzed by semi-quantitative scoring ranging from 5 to 1, from normal to lethal phenotype respectively.
# [3] = system: wet AMD eye; test: Monthly intravitreal injections in wet AMD eye of patient (paper case examples); type: in vivo, human
# Text: A person has age-related macular degeneration and cataracts in both eyes. […] The patient can complain of blurry vision and metamorphopsia in the right eye and examination can reveal visual acuity of 20/400 right eye, 20/32 left eye. Retinal examination can show subfoveal choroidal neovascularization (CNV) (right eye wet AMD) approximately 1 disc area in size with surrounding hemorrhage and edema in the right eye. The fellow left eye can show high-risk features for developing wet AMD such as soft, amorphic appearing drusen that included the fovea but no signs of choroidal neovascularization and can be confirmed by fluorescein angiography (left eye dry AMD).
# A person can wake up with blurry vision in the left eye. They can have a history of glaucoma, s/p cataract removal with IOLs (intraocular lenses), and dry AMD in both eyes and can be taking Alphagan P eye drops. The patient's ophthalmologist can examine them and they can be diagnosed with left eye wet AMD and sent immediately to a retinal specialist. The vision can be 20/25 in the right eye and 20/200 in the left eye. Retinal examination can show dry changes in the right eye macula but high risk features such as large drusen and numerous pigmentary changes in the subfoveal region. The left eye macula can show a subfoveal CNV approximately 2 disc areas in size with surrounding macular edema and intraretinal hemorrhages. Fluorescein angiography can confirm the presence of left eye CNV predominantly classic in appearance. […] Since the patient was at high risk for developing CNV in their right eye, and the vision in the left eye may not appreciably improve over the 3 month period, they can receive an intravitrea injection into the right eye of 50 ul comprising 4.8 mg of ranibizumab incorporated into PLGA microspheres, to prophylax against the development of CNV in the right eye. Polysorbate 20 PLGA microspheres with an in vitro release rate of 5 ug/day can also be placed in the formulation to enhance retinal permeability. The microspheres can be placed in a partially cross-linked hyaluronic acid (HA) at a HA concentration of 2.1%. Such a cross-linked HA can be obtained from Allergan Medical (Irvine, Calif.) under the brand names Juvederm Ultra Plus, Juvederm 30, Captique, and Voluma.
molecule,measurement,setting,value
bevacizumab,intraocular toxicity,[1],without significant intraocular toxicity
polysorbate 80,polysorbate 80 concentrations associated with declining RPE cell viability,"[2]; ARPE-19 cells, 24, 48 and 72 h incubation, also printed as 0.6 mg/ml, FIG. 1",over 0.06%
same,polysorbate 80 concentrations associated with cell viabilities of less than 50%,"[2]; ARPE-19 cells, 24, 48 and 72 h incubation, also printed as 0.9 mg/ml, FIG. 1",> 0.09%
same,total maximum weight of polysorbate in the vitreous at one time,[2]; assuming a vitreous volume of 4 ml in a human eye,≤ 3.6 mg
B1,"edema and hemorrhage, right wet AMD eye","[3]; Example 1, within 4 months",resolution of the edema and hemorrhage
same,"visual acuity, right wet AMD eye","[3]; Example 1, within 4 months, baseline 20/400",20/125
same,left eye visual acuity (wet AMD eye),"[3]; Example 3, 3 month period, baseline 20/200",20/100
same,"retinal edema, left wet AMD eye","[3]; Example 3, over a 3 month period",resolution of the retinal edema
